Measurements published in US20220372155A1 (LYVGEN BIOPHARMA, published 2022).

B1: Ly468 (bispecific antibody, human IgG1, kappa)
heavy: QVQLKESGPGLVAPSQSLSITCTVSGFSLTDYGVRWIRQPPGKGLEWLGVIWGGGSTYYNSALKSRLSISKDNSKSQVFLKMNSLQTDDTAMYYCAKEKRRGYYYAMDYWGQGTSVTVSSASTKGPSVFPLAPSSKSTSGGTAALGCLVKDYFPEPVTVSWNSGALTSGVHTFPAVLQSSGLYSLSSVVTVPSSSLGTQTYICNVNHKPSNTKVDKKVEPKSCDKTHTCPPCPAPELLGPSVFLFPPKPKDTLMISRTPEVTCVVVDVSHEDPEVKFNWYVDGVEVHNAKTKPREEQYNSTYRVVSVLTVLHQDWLNGKEYKCKVSNKALPAPIEKTISKAKGQPREPQVYTLPPSREEMTKNQVSLTCLVKGFYPSDIAVEWESNGQPENNYKTTPPVLDSDGSFFLYSKLTVDKSRWQQGNVFSCSVMHEALHNHYTQKSLSLSPG
light: ENVLTQSPAIMSASPGEKVTMTCRASSSVSSSYLHWYQQKSGASPKLWIYSTSNLASGVPARFSGSGSGTSYSLTISSVEAEDAATYYCQQYSGYPLTFGGGTKLEIKRTVAAPSVFIFPPSDEQLKSGTASVVCLLNNFYPREAKVQWKVDNALQSGNSQESVTEQDSKDSTYSLSSTLTLSKADYEKHKVYACEVTHQGLSSPVTKSFNRGECGGGGSGGGGSGGGGSGGGGSDIQMTQSPSSLSASVGDRVTITCLASEDISNDLAWYQQKPGKAPKLLIYFVDRLLDGVPSRFSGSGSGTDFTLTISSLQPEDFATYYCQQSYKYPPTFGQGTKLEIKGGGGSGGGGSGGGGSGGGGSEVQLVESGGGLVQPGGSLRLSCAASGFTFTNYGLHWVRQAPGKGLEWVSSISPSGGVTYYRDSVKGRFTISRDNSKNTLYLQMNSLRAEDTAVYYCAKPFLGWGGANWIAHWGQGTLVTVSS
notes: Ly368 HC + Ly368 LC-TM559 scFv VL-VH
B2: Ly469 (bispecific antibody, human IgG1, kappa)
heavy: QVQLKESGPGLVAPSQSLSITCTVSGFSLTDYGVRWIRQPPGKGLEWLGVIWGGGSTYYNSALKSRLSISKDNSKSQVFLKMNSLQTDDTAMYYCAKEKRRGYYYAMDYWGQGTSVTVSSASTKGPSVFPLAPSSKSTSGGTAALGCLVKDYFPEPVTVSWNSGALTSGVHTFPAVLQSSGLYSLSSVVTVPSSSLGTQTYICNVNHKPSNTKVDKKVEPKSCDKTHTCPPCPAPELLGPSVFLFPPKPKDTLMISRTPEVTCVVVDVSHEDPEVKFNWYVDGVEVHNAKTKPREEQYNSTYRVVSVLTVLHQDWLNGKEYKCKVSNKALPAPIEKTISKAKGQPREPQVYTLPPSREEMTKNQVSLTCLVKGFYPSDIAVEWESNGQPENNYKTTPPVLDSDGSFFLYSKLTVDKSRWQQGNVFSCSVMHEALHNHYTQKSLSLSPG
light: ENVLTQSPAIMSASPGEKVTMTCRASSSVSSSYLHWYQQKSGASPKLWIYSTSNLASGVPARFSGSGSGTSYSLTISSVEAEDAATYYCQQYSGYPLTFGGGTKLEIKRTVAAPSVFIFPPSDEQLKSGTASVVCLLNNFYPREAKVQWKVDNALQSGNSQESVTEQDSKDSTYSLSSTLTLSKADYEKHKVYACEVTHQGLSSPVTKSFNRGECGGGGSGGGGSGGGGSGGGGSEVQLVESGGGLVQPGGSLRLSCAASGFTFTNYGLHWVRQAPGKGLEWVSSISPSGGVTYYRDSVKGRFTISRDNSKNTLYLQMNSLRAEDTAVYYCAKPFLGWGGANWIAHWGQGTLVTVSSGGGGSGGGGSGGGGSGGGGSDIQMTQSPSSLSASVGDRVTITCLASEDISNDLAWYQQKPGKAPKLLIYFVDRLLDGVPSRFSGSGSGTDFTLTISSLQPEDFATYYCQQSYKYPPTFGQGTKLEIK
notes: Ly368 HC + Ly368 LC-TM559 scFv VH-VL
B3: Ly473 (bispecific antibody, human IgG1, kappa)
heavy: QVQLKESGPGLVAPSQSLSITCTVSGFSLTDYGVRWIRQPPGKGLEWLGVIWGGGSTYYNSALKSRLSISKDNSKSQVFLKMNSLQTDDTAMYYCAKEKRRGYYYAMDYWGQGTSVTVSSASTKGPSVFPLAPSSKSTSGGTAALGCLVKDYFPEPVTVSWNSGALTSGVHTFPAVLQSSGLYSLSSVVTVPSSSLGTQTYICNVNHKPSNTKVDKKVEPKSCDKTHTCPPCPAPELLGPSVFLFPPKPKDTLMISRTPEVTCVVVDVSHEDPEVKFNWYVDGVEVHNAKTKPREEQYNSTYRVVSVLTVLHQDWLNGKEYKCKVSNKALPAPIEKTISKAKGQPREPQVYTLPPSREEMTKNQVSLTCLVKGFYPSDIAVEWESNGQPENNYKTTPPVLDSDGSFFLYSKLTVDKSRWQQGNVFSCSVMHEALHNHYTQKSLSLSPG
light: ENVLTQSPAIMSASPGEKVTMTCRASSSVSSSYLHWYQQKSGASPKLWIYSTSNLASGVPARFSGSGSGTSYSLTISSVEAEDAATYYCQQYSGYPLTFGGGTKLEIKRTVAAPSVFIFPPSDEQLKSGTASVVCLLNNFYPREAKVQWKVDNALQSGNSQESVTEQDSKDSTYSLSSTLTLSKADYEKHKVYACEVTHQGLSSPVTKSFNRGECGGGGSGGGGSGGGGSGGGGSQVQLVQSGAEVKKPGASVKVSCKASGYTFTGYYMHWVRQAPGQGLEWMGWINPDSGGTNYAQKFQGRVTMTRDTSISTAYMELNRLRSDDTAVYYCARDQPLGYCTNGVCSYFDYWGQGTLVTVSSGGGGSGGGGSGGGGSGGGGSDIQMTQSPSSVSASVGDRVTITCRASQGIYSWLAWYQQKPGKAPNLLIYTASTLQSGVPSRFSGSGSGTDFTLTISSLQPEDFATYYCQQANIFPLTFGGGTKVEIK
notes: Ly368 HC + Ly368 LC-Ly253 scFv VH-VL
B4: Ly472 (bispecific antibody, human IgG1, kappa)
heavy: QVQLKESGPGLVAPSQSLSITCTVSGFSLTDYGVRWIRQPPGKGLEWLGVIWGGGSTYYNSALKSRLSISKDNSKSQVFLKMNSLQTDDTAMYYCAKEKRRGYYYAMDYWGQGTSVTVSSASTKGPSVFPLAPSSKSTSGGTAALGCLVKDYFPEPVTVSWNSGALTSGVHTFPAVLQSSGLYSLSSVVTVPSSSLGTQTYICNVNHKPSNTKVDKKVEPKSCDKTHTCPPCPAPELLGPSVFLFPPKPKDTLMISRTPEVTCVVVDVSHEDPEVKFNWYVDGVEVHNAKTKPREEQYNSTYRVVSVLTVLHQDWLNGKEYKCKVSNKALPAPIEKTISKAKGQPREPQVYTLPPSREEMTKNQVSLTCLVKGFYPSDIAVEWESNGQPENNYKTTPPVLDSDGSFFLYSKLTVDKSRWQQGNVFSCSVMHEALHNHYTQKSLSLSPG
light: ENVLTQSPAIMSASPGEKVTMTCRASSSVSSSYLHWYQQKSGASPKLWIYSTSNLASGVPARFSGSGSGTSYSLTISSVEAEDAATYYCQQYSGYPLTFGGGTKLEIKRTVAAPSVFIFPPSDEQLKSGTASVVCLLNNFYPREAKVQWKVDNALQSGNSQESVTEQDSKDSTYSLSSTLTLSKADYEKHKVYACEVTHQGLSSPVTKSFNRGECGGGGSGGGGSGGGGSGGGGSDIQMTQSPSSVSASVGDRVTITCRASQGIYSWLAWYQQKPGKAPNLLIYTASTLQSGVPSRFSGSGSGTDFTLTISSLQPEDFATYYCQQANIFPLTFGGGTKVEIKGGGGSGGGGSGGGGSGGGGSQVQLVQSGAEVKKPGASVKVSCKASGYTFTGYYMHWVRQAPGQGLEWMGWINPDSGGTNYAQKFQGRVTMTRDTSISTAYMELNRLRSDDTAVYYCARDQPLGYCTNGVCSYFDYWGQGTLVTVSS
notes: Ly368 HC + Ly368 LC-Ly253 scFv VL-VH
B5: TM377 (antibody, human IgG4 S228P, kappa, V domains shown)
VH: EVQILETGGGLVKPGGSLRLSCATSGFNFNDSFMNWVRQAPGKGLEWVAQIRNKNYNYATYYTESLEGRVTISRDDSKSRVYLQVSSLRAEDSAVYYCTSYYYDGFADYFDYWGQGVMVTVSS
VL: DIKMTQSPSFLSASVGDSVTFTCKASQNIYIYLNWYQQKFGEAPKLLIYNTNNLQTGIPSRFSGSESGTVFTLTISSLQPEDVATYFCLQHSSRRTFGGGTKLELKR
notes: chimeric: LYV377 VH/human IgG4, LYV377 VL/kappa; also called chimeric parent TM377
B6: Ly801 (bispecific antibody, human IgG1, kappa)
heavy: EVQLQQSGPELVKPGASVKMSCKASGYTFTSYVMHWVKQKPGQGLEWIGYINPYNDGTECTDKFKGKATLTSDKSSSTAYMELSSLTSEDSAVYYCASIYYGYDGTYFGVWGAGTSVTVSSASTKGPSVFPLAPSSKSTSGGTAALGCLVKDYFPEPVTVSWNSGALTSGVHTFPAVLQSSGLYSLSSVVTVPSSSLGTQTYICNVNHKPSNTKVDKKVEPKSCDKTHTCPPCPAPELLGPSVFLFPPKPKDTLMISRTPEVTCVVVDVSHEDPEVKFNWYVDGVEVHNAKTKPREEQYNSTYRVVSVLTVLHQDWLNGKEYKCKVSNKALPAPIEKTISKAKGQPREPQVYTLPPSREEMTKNQVSLTCLVKGFYPSDIAVEWESNGQPENNYKTTPPVLDSDGSFFLYSKLTVDKSRWQQGNVFSCSVMHEALHNHYTQKSLSLSPG
light: QIVLSQSPAILSTSPGEKVTMTCRASSSVSYMHWYQQKPGSSPKPWIYATSNLASGVPARFSGSRSGTSYSLTISRVEAEDAATYYCQQWSSNTLTFGGGTKLELKRTVAAPSVFIFPPSDEQLKSGTASVVCLLNNFYPREAKVQWKVDNALQSGNSQESVTEQDSKDSTYSLSSTLTLSKADYEKHKVYACEVTHQGLSSPVTKSFNRGECGGGGSGGGGSGGGGSGGGGSDIQMTQSPSSLSASVGDRVTITCKASQNIYIYLNWYQQKPGKAPKLLIYNTNNLQTGVPSRFSGSGSGTDFTLTISSLQPEDFATYYCLQHSSRRTFGGGTKVEIKGGGGSGGGGSGGGGSGGGGSQVQLVESGGGLVQPGGSLKLSCATSGFNFNDYFMNWVRQASGKGLEWVGQIRNKNYNYATYYTESLEGRVTISRDDSKNTAYLQMNSLKTEDTAVYYCTSYYYDGFADYFDYWGQGTTVTVSS
notes: Ly383 HC (IgG1 mutated Fc) + Ly383 LC-TM740 scFv VL-VH
B7: Ly802 (bispecific antibody, human IgG1, kappa)
heavy: EVQLQQSGPELVKPGASVKMSCKASGYTFTSYVMHWVKQKPGQGLEWIGYINPYNDGTECTDKFKGKATLTSDKSSSTAYMELSSLTSEDSAVYYCASIYYGYDGTYFGVWGAGTSVTVSSASTKGPSVFPLAPSSKSTSGGTAALGCLVKDYFPEPVTVSWNSGALTSGVHTFPAVLQSSGLYSLSSVVTVPSSSLGTQTYICNVNHKPSNTKVDKKVEPKSCDKTHTCPPCPAPELLGPSVFLFPPKPKDTLMISRTPEVTCVVVDVSHEDPEVKFNWYVDGVEVHNAKTKPREEQYNSTYRVVSVLTVLHQDWLNGKEYKCKVSNKALPAPIEKTISKAKGQPREPQVYTLPPSREEMTKNQVSLTCLVKGFYPSDIAVEWESNGQPENNYKTTPPVLDSDGSFFLYSKLTVDKSRWQQGNVFSCSVMHEALHNHYTQKSLSLSPG
light: QIVLSQSPAILSTSPGEKVTMTCRASSSVSYMHWYQQKPGSSPKPWIYATSNLASGVPARFSGSRSGTSYSLTISRVEAEDAATYYCQQWSSNTLTFGGGTKLELKRTVAAPSVFIFPPSDEQLKSGTASVVCLLNNFYPREAKVQWKVDNALQSGNSQESVTEQDSKDSTYSLSSTLTLSKADYEKHKVYACEVTHQGLSSPVTKSFNRGECGGGGSGGGGSGGGGSGGGGSQVQLVESGGGLVQPGGSLKLSCATSGFNFNDYFMNWVRQASGKGLEWVGQIRNKNYNYATYYTESLEGRVTISRDDSKNTAYLQMNSLKTEDTAVYYCTSYYYDGFADYFDYWGQGTTVTVSSGGGGSGGGGSGGGGSGGGGSDIQMTQSPSSLSASVGDRVTITCKASQNIYIYLNWYQQKPGKAPKLLIYNTNNLQTGVPSRFSGSGSGTDFTLTISSLQPEDFATYYCLQHSSRRTFGGGTKVEIK
notes: Ly383 HC (IgG1 mutated Fc) + Ly383 LC-TM740 scFv VH-VL
B8: Ly470 (bispecific antibody, human IgG1, kappa)
heavy: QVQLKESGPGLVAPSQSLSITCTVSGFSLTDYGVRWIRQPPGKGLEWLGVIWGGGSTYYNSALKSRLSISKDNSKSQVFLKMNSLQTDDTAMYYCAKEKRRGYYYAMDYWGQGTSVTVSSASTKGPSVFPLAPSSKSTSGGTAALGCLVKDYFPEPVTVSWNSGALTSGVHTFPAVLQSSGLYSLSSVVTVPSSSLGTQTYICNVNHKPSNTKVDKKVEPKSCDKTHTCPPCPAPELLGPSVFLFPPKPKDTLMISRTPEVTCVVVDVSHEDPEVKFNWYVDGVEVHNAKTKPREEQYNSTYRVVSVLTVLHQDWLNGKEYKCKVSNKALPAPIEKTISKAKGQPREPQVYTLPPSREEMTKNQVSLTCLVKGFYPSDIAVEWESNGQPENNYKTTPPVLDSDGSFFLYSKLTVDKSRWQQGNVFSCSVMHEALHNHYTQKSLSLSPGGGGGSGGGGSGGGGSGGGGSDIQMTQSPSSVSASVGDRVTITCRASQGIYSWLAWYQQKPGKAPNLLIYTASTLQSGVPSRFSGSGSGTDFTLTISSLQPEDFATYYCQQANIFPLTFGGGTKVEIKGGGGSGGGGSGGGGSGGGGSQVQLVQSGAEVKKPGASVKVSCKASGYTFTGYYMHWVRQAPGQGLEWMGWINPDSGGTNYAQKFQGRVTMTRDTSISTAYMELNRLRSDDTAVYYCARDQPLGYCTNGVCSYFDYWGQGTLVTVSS
light: ENVLTQSPAIMSASPGEKVTMTCRASSSVSSSYLHWYQQKSGASPKLWIYSTSNLASGVPARFSGSGSGTSYSLTISSVEAEDAATYYCQQYSGYPLTFGGGTKLEIKRTVAAPSVFIFPPSDEQLKSGTASVVCLLNNFYPREAKVQWKVDNALQSGNSQESVTEQDSKDSTYSLSSTLTLSKADYEKHKVYACEVTHQGLSSPVTKSFNRGEC
notes: Ly368 HC-Ly253 scFv VL-VH + Ly368 LC
B9: Ly471 (bispecific antibody, human IgG1, kappa)
heavy: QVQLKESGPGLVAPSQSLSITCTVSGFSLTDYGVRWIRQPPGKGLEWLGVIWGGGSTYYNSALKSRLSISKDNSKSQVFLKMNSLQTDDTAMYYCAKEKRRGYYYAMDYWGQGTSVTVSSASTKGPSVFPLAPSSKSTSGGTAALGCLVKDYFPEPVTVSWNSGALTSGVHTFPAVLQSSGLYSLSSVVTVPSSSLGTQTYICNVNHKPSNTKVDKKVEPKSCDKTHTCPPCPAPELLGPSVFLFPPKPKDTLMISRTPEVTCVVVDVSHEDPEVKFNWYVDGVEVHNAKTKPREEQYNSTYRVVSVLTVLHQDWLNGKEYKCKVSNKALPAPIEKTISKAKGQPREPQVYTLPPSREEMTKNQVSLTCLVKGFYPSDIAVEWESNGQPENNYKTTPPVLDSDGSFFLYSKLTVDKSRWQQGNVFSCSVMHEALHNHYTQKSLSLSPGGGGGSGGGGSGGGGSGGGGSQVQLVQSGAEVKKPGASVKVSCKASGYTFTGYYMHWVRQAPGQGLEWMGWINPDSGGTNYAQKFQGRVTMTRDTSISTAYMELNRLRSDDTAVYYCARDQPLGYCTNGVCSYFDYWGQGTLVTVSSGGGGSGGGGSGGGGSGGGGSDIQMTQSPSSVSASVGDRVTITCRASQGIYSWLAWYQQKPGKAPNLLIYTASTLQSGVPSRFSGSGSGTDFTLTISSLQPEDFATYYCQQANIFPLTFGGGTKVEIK
light: ENVLTQSPAIMSASPGEKVTMTCRASSSVSSSYLHWYQQKSGASPKLWIYSTSNLASGVPARFSGSGSGTSYSLTISSVEAEDAATYYCQQYSGYPLTFGGGTKLEIKRTVAAPSVFIFPPSDEQLKSGTASVVCLLNNFYPREAKVQWKVDNALQSGNSQESVTEQDSKDSTYSLSSTLTLSKADYEKHKVYACEVTHQGLSSPVTKSFNRGEC
notes: Ly368 HC-Ly253 scFv VH-VL + Ly368 LC

What follows are binders tested against T1, human CD40 expressed on CHO cells (human, UniProt P25942 21-277) (assay: FACS, CHO cells).
T1 construct: whole, on cells; also used for the reporter cells over-expressing human CD40; also called cellular CD40; CHO-CD40 cells
T1 sequence (P25942 21-277): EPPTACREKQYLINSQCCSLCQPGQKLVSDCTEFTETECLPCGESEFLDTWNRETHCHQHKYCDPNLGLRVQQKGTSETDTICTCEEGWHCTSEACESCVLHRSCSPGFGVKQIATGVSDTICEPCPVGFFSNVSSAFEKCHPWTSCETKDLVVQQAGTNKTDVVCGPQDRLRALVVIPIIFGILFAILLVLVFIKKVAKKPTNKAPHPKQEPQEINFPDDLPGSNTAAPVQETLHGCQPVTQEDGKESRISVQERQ

Binding result, binds:
B1
B2
B3
B4
B5
B6
B7
B8
B9
